For 36 variants, abundance fitness results are on record in the Human Domainome abundance scans (Beltran et al. 2025).

± gives the uncertainty stated by the source.

Sequences and labels used below:
B1: Retinoic acid receptor beta, residues 85 to 161; numbered along this chain, P10826 (parent)
chain: YKPCFVCQDKSSGYHYGVSACEGCKGFFRRSIQKNMIYTCHRDKNCVINKVTRNRCQYCRLQKCFEVGMSKESVRND

The variants in this data set derive from B1. Briefly: abundance fitness (aPCA) (normalised: wild type 0, dead -1); higher = more abundant; growth selection in yeast, the domain comes from the species named. The settings on record: Homo sapiens.
Consider YKPCFVCQDKSSGYHYGMSACEGCKGFFRRSIQKNMIYTCHRDKNCVINKVTRNRCQYCRLQKCFEVGMSKESVRND [V18M], for which the abundance fitness was -0.209 ± 0.18. YKPCFVCQDKSSGYHYGHSACEGCKGFFRRSIQKNMIYTCHRDKNCVINKVTRNRCQYCRLQKCFEVGMSKESVRND [V18H]: the abundance fitness was -0.433 ± 0.26. With YKPCFVCQDKSSGYHYGRSACEGCKGFFRRSIQKNMIYTCHRDKNCVINKVTRNRCQYCRLQKCFEVGMSKESVRND [V18R], the abundance fitness was -0.76 ± 0.1.

Consider YKPCFVCQDKSSGYHYGLSACEGCKGFFRRSIQKNMIYTCHRDKNCVINKVTRNRCQYCRLQKCFEVGMSKESVRND [V18L], for which the abundance fitness was -0.353 ± 0.059.

For the variant YKPCFVCQDKSSGYHYGDSACEGCKGFFRRSIQKNMIYTCHRDKNCVINKVTRNRCQYCRLQKCFEVGMSKESVRND [V18D], the abundance fitness is -0.637 ± 0.21. For YKPCFVCQDKSSGYHYGQSACEGCKGFFRRSIQKNMIYTCHRDKNCVINKVTRNRCQYCRLQKCFEVGMSKESVRND [V18Q] the value was -0.04 ± 0.065; for YKPCFVCQDKSSGYHYGISACEGCKGFFRRSIQKNMIYTCHRDKNCVINKVTRNRCQYCRLQKCFEVGMSKESVRND [V18I], 0.012 ± 0.097; for YKPCFVCQDKSSGYHYGCSACEGCKGFFRRSIQKNMIYTCHRDKNCVINKVTRNRCQYCRLQKCFEVGMSKESVRND [V18C], -0.106 ± 0.08.

With YKPCFVCQDKSSGYHYGFSACEGCKGFFRRSIQKNMIYTCHRDKNCVINKVTRNRCQYCRLQKCFEVGMSKESVRND [V18F], the abundance fitness is -0.108 ± 0.12. On to YKPCFVCQDKSSGYHYGESACEGCKGFFRRSIQKNMIYTCHRDKNCVINKVTRNRCQYCRLQKCFEVGMSKESVRND [V18E], for which the abundance fitness was -0.421 ± 0.075. For YKPCFVCQDKSSGYHEGVSACEGCKGFFRRSIQKNMIYTCHRDKNCVINKVTRNRCQYCRLQKCFEVGMSKESVRND [Y16E] the value was 0.29 ± 0.077; for YKPCFVCQDKSSGYHKGVSACEGCKGFFRRSIQKNMIYTCHRDKNCVINKVTRNRCQYCRLQKCFEVGMSKESVRND [Y16K], -0.295 ± 0.12; for YKPCFVCQDKSSGYHAGVSACEGCKGFFRRSIQKNMIYTCHRDKNCVINKVTRNRCQYCRLQKCFEVGMSKESVRND [Y16A], -0.062 ± 0.066.

Regarding YKPCFVCQDKSSGYHTGVSACEGCKGFFRRSIQKNMIYTCHRDKNCVINKVTRNRCQYCRLQKCFEVGMSKESVRND [Y16T], the abundance fitness is -0.069 ± 0.058.

For YKPCFVCQDKSSGYHIGVSACEGCKGFFRRSIQKNMIYTCHRDKNCVINKVTRNRCQYCRLQKCFEVGMSKESVRND [Y16I], the abundance fitness was -0.178 ± 0.074. As for YKPCFVCQDKSSGYHFGVSACEGCKGFFRRSIQKNMIYTCHRDKNCVINKVTRNRCQYCRLQKCFEVGMSKESVRND [Y16F], the abundance fitness was 0.035 ± 0.061. For YKPCFVCQDKSSGYHQGVSACEGCKGFFRRSIQKNMIYTCHRDKNCVINKVTRNRCQYCRLQKCFEVGMSKESVRND [Y16Q] the value was -0.027 ± 0.091. With YKPCFVCQDKSSGYHGGVSACEGCKGFFRRSIQKNMIYTCHRDKNCVINKVTRNRCQYCRLQKCFEVGMSKESVRND [Y16G], the abundance fitness was found to be 0.025 ± 0.06. Turning to YKPCFVCQDKSSGYHDGVSACEGCKGFFRRSIQKNMIYTCHRDKNCVINKVTRNRCQYCRLQKCFEVGMSKESVRND [Y16D], the abundance fitness was 0.128 ± 0.065. To YKPCFVCQDKSSGYHPGVSACEGCKGFFRRSIQKNMIYTCHRDKNCVINKVTRNRCQYCRLQKCFEVGMSKESVRND [Y16P] belongs -0.115 ± 0.084; to YKPCFVCQDKSSGYHLGVSACEGCKGFFRRSIQKNMIYTCHRDKNCVINKVTRNRCQYCRLQKCFEVGMSKESVRND [Y16L], -0.045 ± 0.056; to YKPCFVCQDKSSGYHWGVSACEGCKGFFRRSIQKNMIYTCHRDKNCVINKVTRNRCQYCRLQKCFEVGMSKESVRND [Y16W], -0.126 ± 0.14. For YKPCFVCQDKSSGYHCGVSACEGCKGFFRRSIQKNMIYTCHRDKNCVINKVTRNRCQYCRLQKCFEVGMSKESVRND [Y16C] the value was -0.134 ± 0.1; for YKPCFVCQDKSSGYHVGVSACEGCKGFFRRSIQKNMIYTCHRDKNCVINKVTRNRCQYCRLQKCFEVGMSKESVRND [Y16V], -0.062 ± 0.07; for YKPCFVCQDKSSGYHMGVSACEGCKGFFRRSIQKNMIYTCHRDKNCVINKVTRNRCQYCRLQKCFEVGMSKESVRND [Y16M], -0.15 ± 0.098. Consider YKPCFVCQDKSSGYHSGVSACEGCKGFFRRSIQKNMIYTCHRDKNCVINKVTRNRCQYCRLQKCFEVGMSKESVRND [Y16S], for which the abundance fitness is -0.072 ± 0.06. Regarding YKPCFVCQDKSSGYHNGVSACEGCKGFFRRSIQKNMIYTCHRDKNCVINKVTRNRCQYCRLQKCFEVGMSKESVRND [Y16N], the abundance fitness was -0.08 ± 0.068.

Regarding YKPCFVCQDKSSGPHYGVSACEGCKGFFRRSIQKNMIYTCHRDKNCVINKVTRNRCQYCRLQKCFEVGMSKESVRND [Y14P], the abundance fitness is 0.125 ± 0.057. For YKPCFVCQDKSSGTHYGVSACEGCKGFFRRSIQKNMIYTCHRDKNCVINKVTRNRCQYCRLQKCFEVGMSKESVRND [Y14T], the abundance fitness was found to be 0.042 ± 0.053. On to YKPCFVCQDKSSGVHYGVSACEGCKGFFRRSIQKNMIYTCHRDKNCVINKVTRNRCQYCRLQKCFEVGMSKESVRND [Y14V], for which the abundance fitness was 0.092 ± 0.048. In the case of YKPCFVCQDKSSGSHYGVSACEGCKGFFRRSIQKNMIYTCHRDKNCVINKVTRNRCQYCRLQKCFEVGMSKESVRND [Y14S], the abundance fitness is -0.044 ± 0.051. Take YKPCFVCQDKSSGKHYGVSACEGCKGFFRRSIQKNMIYTCHRDKNCVINKVTRNRCQYCRLQKCFEVGMSKESVRND [Y14K]: the abundance fitness was found to be 0.012 ± 0.09. As to YKPCFVCQDKSSGNHYGVSACEGCKGFFRRSIQKNMIYTCHRDKNCVINKVTRNRCQYCRLQKCFEVGMSKESVRND [Y14N], the abundance fitness is -0.041 ± 0.07.

YKPCFVCQDKSSGLHYGVSACEGCKGFFRRSIQKNMIYTCHRDKNCVINKVTRNRCQYCRLQKCFEVGMSKESVRND [Y14L]: the abundance fitness amounted to 0.006 ± 0.045.

Turning to YKPCFVCQDKSSGWHYGVSACEGCKGFFRRSIQKNMIYTCHRDKNCVINKVTRNRCQYCRLQKCFEVGMSKESVRND [Y14W], the abundance fitness came out at 0.061 ± 0.087. In the case of YKPCFVCQDKSSGRHYGVSACEGCKGFFRRSIQKNMIYTCHRDKNCVINKVTRNRCQYCRLQKCFEVGMSKESVRND [Y14R], the abundance fitness is -0.203 ± 0.057.
